Experiment: label from the status in PepcDB records

Sequence | protein production
MIRFEIHGENLTITDAIRNYIEEKIGKLERYFNDVPNATAHVKVKTYQNSATKIEVTIPLKKVTLRAEERNDDLYAGIDLINNKLERQVRKYKTRVNRRNRNRGEQEAFASLPEEKEAVEIQNDENEADNEIEIIRAKNFSLKPMDSEEAVLQMDLLGHDFFIFTDRETDGTSIVYKRKDGKYGLIETTELEHHHHHH | failed
METLLIQQTEKSNKFWKIVVKEKDYVVFYGKIGTAGSVKAKEFETEEECMNEANKLVASKRKKGYIDPLPGEDYIKEKTITEEEFWELLHRAKTKGEDQEEQIEWLTSHLAKRTVHEIVAFDTHMHSLLKDSYTSRLWAAAYIIMGGCSDDTFDYFRGWLLYQGKETYEACIEDPERLIPVLENLSEYDVPEIEELSLYFGFTVYAEKTGDEDDTYFTLYHVLSNEEFDDVDFEFDWNEDDEEGLKKVFPRLWEMYGEEPIEWLEHHHHHH | not failed
MTLWQLIKAEIRSVLTNPVVTLTVFGGVVFYSFLYPLPYAQQTPREQPIAVVNLDGSQTSLKLERMVDATPQVKIVSRLHTVEDAKQAFLNREITGFLVIPEHFYKDVMLGKSPTLAYAADASYFLVYGTVVEGLAQAGGTLGAQVKVSKMVIEGVPLSLASHNYSAIKLNMKPTFNPTMGYIEYVVPAVFVLILQQTLIMAVGLQTGSQRHGRGYWSQVSTGSLLLVRTLVFIAIYYLLSAYYFGFSFERLSVNHIAKAGELLTMLFPFLLGCCGLGFWLGYLLPRRELVTLVVLVSSMPLIFLAGFIWPVESIPAPLLWIADLSPSTWSIKGFLALNQMGATWQQVAKHWTALWLLVALWGGVAYWIAKRNNKPVVTESLS | failed
MEQLVSMGFSSDLAAEALTATGGDSIQKATDWILSHRSSPQSTATLQPKLDRFLRLHPKALAPAMGDDSSKRPNPKTQIHVAADDSNKRHKLSSSSHRQHQPLSERMRPRTLDDVVGQDHLLSPSSLLRSAVESNRLPSIVFWGPPGTGKTSIAKSLINSSKDPSLYRFVSLSAVTSGVKDVRDAVESAKRLNLEGRKRTVLFMDEVHRFNKSQQDTFLPVIEDGSILFIGATTENPSFHLITPLLSRCRVLTLNPLKPNHVETLLRRAVDDSERGLPNSVEVDDSVIEFLANNCDGDARVALNALEISATMATTRAGTDAVVSIDDAKEALQCKHLAYDKAGEQHYNLISALHKSMRGGDANAAIYWLARMLEGGEEPLYIARRLIRFASEDIGLADPSALTQAVACYQASHFLGMPECNVILAQCTAYLALAPKSIAVYRAIGAAQKVVKDSVGQNEGVPLHLRNAPTKLMKELGYGKEYIYPPSDPSSAAGQTYLPPSLLHHKFLEWPEGASGDFQDQEHRL | failed
MKHVRSHLPRVLLGLMISVSLVLAGCANNGTGSSMLGGSGTDPDPRLTKSTDSSFFSTSGLTACAAAAGVGILACAVASPSDKVKCMVVAGIAACGVAMGANYYYDYRRSKYSNTAQRLQLMNDDVKADTEKVAQRTYTLQQVINDDKERIAGIQKSIKTKTLDKAKAQQEIASVDSNLAQMNKDLTGMRSKVAEYKKTADLERASDGGTQVTAIDGEISKMNSKVASLQKEVDGLYSQRQAITLG | failed
MNLILTILSALGSFIVTNVDDIFVLMLLFSQARSQAKTGNSGIVSMESKGNRIYPRDIVIGQYLGFALLVLISLLATFGVTLIPDQWVGLLGLIPIYLGVKLFIKGEDEDEGNILSNLNKFNKFYLSVAFITFANGGDNIGIYVPFFSTLNNNQLIITVVTFFIMVAVWCLIGYRLARFRYVSETLEKYGRWIIPIVFIGLGIYIMVENETFRAILSLVN | failed
AIDVSAKSAIIIDGASGRVLYAKDEHQKRRIASITKIMTAVLAIESGKMDQTVTVSANAVRTEGSAIYLTEGQKVKLKDLVYGLMLRSGNDAAVAIAEHVGGSLDGFVYMMNQKAEQLGMKNTRFQNPHGLDDHENHYSTAYDMAILTKYAMKLKDYQKISGTKIYKAETMESVWKNKNKLLTMLYPYSTGGKTGYTKLAKRTLVSTASKDGIDLIAVTINDPNDWDDHMKMFNYVFEHYQTYLIAKKGDIPKLKGTFYESKAFIKRDITYLLTEEEKENVKINTTLLKPKKAWEKDASKIPDIVGHMEIMFNDATIAKVPIYYENERHQK | not failed
RRLPTVLLKLRMAQHLQAAVAFVEQGHVRVGPDVVTDPAFLVTRSMEDFVTWVDSSKI | not failed
MAISDANRGGAPGAAPGPDPAHILHELAGLMAISPGRDFLDELVNRAVQRLGVDYAWVVLHGAKGEHARTVLSANCRMRWNGAESYLATGQSALAGVLSHATQYVCARDLERHVPGDLALRRLGAQACVAHALRDESGLQRGHVAFVFSEPLADPAIYVSALSACAAFTERAVLALDAERKARQEALQLASRYQALFEKAPVLINAFDARGKCILWNLECERKFGWSMEEVNNHPEPLALFYPDPQTRARVVASVSQAPGRAFEEWHPVTRAGKVLSTLWSNIVLESGTIVNIGLDITERKRAELALTRLATIDSLTDCWNRAEILKILRQEITRLRQHPDQPLAVVMLDLDHFKQLNDLHGHLVGDAALRYFSDQLRSNLRGTDFVGRIGGEEFLALLPGCDGDAALAMADRLRAALRNDPFTTEGQAAPLSVSVGIAFATPEDTAVSDVMRRADTALYEAKRRGRDRAVVYFG | failed
GLPVAQSTTTLIDALRTHRMAVVQAPPGTGKTTLVPPIAHNVTGGRVIVVAPRRVAVRAAAHHLVQLDQSSCDQPSTHRVGYTIRGERSRGDLVEFVTPGVLLRRLISNPELDGVSAVVVDEVHERQLDTDLVLGMLVELRELRDDLTVIAMSAT | failed
MHLAYPAVLSALLFCTGLYGVLARRNAILVLMSVELMLNAVNLNLVAFDVWLSRAAEETLHSGQALTLFTIAIAAAEIGIGLAIVLAVHRNRGTSDIDKLRDTAEGHEPDGPDTDTPATGTAAEKAEATA | failed
IDLAHPDLALHLHLNRGGAVLSLDGSGVSLHRRGYRAAMGAAPLKENLAAGLIQLTGWDGRMPLVDPFCGSGILLIEAVTMALQQAPGLGRQFGLEGWADFDRELWEREHARARQRRRSDLDLAPVVGYEQDPLIADQARDNIRAAGLDGLISIHSGSFEQQTLPPGPGLLVCNPPYGHRVGSEDDLEQLYRLLGSFVREQASGWQLWLLSGNASLTGALRLKASRRIPVSNGGIDCRWLNYGIR | failed
MSSLNNEEWDLLISGKKATLQYPIPLLCYPAPEVVSIAQIIDHTQLSLSATGSQIDVLCAEAKEYGFATVCVRPDYVSRAVQYLQGTQVGVTCVIGFHEGTYSTDQKVSEAKRAMQNGASELDMVMNYPWLSEKRYTDVFQDIRAVRLAAKDAILKVILETSQLTADEIIAGCVLSSLAGADYVKTSTGFNGPGASIENVSLMSAVCDSLQSETRVKASGGIRTIEDCVKMVRAGAERLGASAGVKIVNETRLGNRQVDEPMEPTNY | not failed
MCDFISHNKQLFDELDIFIDSLATKEGALIQVLHEAQGIFGYLPKEVQLHVARKLGVAPAKVYGVVTFYSYFTTEPVGKYKISVCLGTVCFVKGADKILSAFEKQLGIKVGETTSDFKFSLEGLRCLGACGLAPVVTVNGKVYGKVKPDQVSEILDTYRELELNC | failed
MKIKILAVLAVVTVIVVSMFMREKREDPSSLVMMNVEALATGEGTSPAICVGTGSVVCPNDGSKVLYYR | failed
MNSPKNSLYEEKSGHYYNAVNPNLLKHIKKEWKEVLDIGCSSGALGAAIKENGTRVSGIEAFPEAAEQAKEKLDHVVLGDIETMDMPYEEEQFDCVIFGDVLEHLFDPWAVIEKVKPYIKQNGVILASIPNVSHISVLAPLLAGNWTYTEYGLLDKTHIRFFTFNEMLRMFLKAGYSISKVDRVYVDHKMYEPLIEELYGICKKYRLGSGFMAETVVFQYIIEAEKSQL | not failed
MATITVVKARQIFDSRGNPTVEVDIHTSNGIKVTAAVPSGASTGIYEALELRDGGSDYLGKGVSKAVGNVNNIIGPALIGKDPTQQTAIDNFMVHELDGTQNEWGWCKQKLGANAILAVSLAVCKAGAVVSGIPLYKHIANLAGNPKIVLPVPAFNVINGGSHAGNKLAMQEFMILPVGAASFKEAMKMGVEVYHHLKSVIKKKYGQDATNVGDEGGFAPNIQENKEGLELLKTAIEKAGYTGKVVIGMDVAASEFYSEDKTYDLNFKEENNNGSQKISGDALKDLYKSFVAEYPIVSIEDPFDQDDWEHYAKMTTECGTEVQIVGDDLLVTNPKRVAKAIAEKSCNALLLKVNQIGSVTESIEAVKMSKKAGWGVMTSHRSGETEDTFIADLAVGLSTGQIKTGAPCRSERLAKYNQLLRIEEELGSEAIYAGVNFRKPVEPY | failed
MMIKASTNEFRFCFKQMNKSQHELVLGWIHQPHINEWLHGDGLSNTIKDLHEFLNDGKPWATHWIAYDNEIPFAYLITSEIEKSEEYPDGAVTLDLFICRLDYIGKGLSVQMIHEFILSQFSDTKIVLINPEISNERAVHVYKKAGFEIIGEFIASWHPVPHYKMKLCIEDLKKQRLSA | not failed
MEMESAAASTRFHQPHMERKMSAMACEIFNELRLEGKLCDVVIKVNGFEFSAHKNILCSCSSYFRALFTSGWNNTEKKVYNIPGISPDMMKLIIEYAYTRTVPITPDNVEKLLAAADQFNIMGIVRGCCEFLKSELCLDNCIGICKFTDYYYCPELRQKAYMFILHNFEEMVKVSAEFLELSVTELKDIIEKDELNVKQEDAVFEAILKWISHDPQNRKQHISILLPKVRLALMHAEYFMNNVKMNDYVKDSEECKPVIINALKAMYDLNMNGPSNSDFTNPLTRPRLPYAILFAIGGWSGGSPTNAIEAYDARADRWVNVTCEEESPRAYHGAAYLKGYVYIIGGFDSVDYFNSVKRFDPVKKTWHQVAPMHSRRCYVSVTVLGNFIYAMGGFDGYVRLNTAERYEPETNQWTLIAPMHEQRSDASATTLYGKVYICGGFNGNECLFTAEVYNTESNQWTVIAPMRSRRSGIGVIAYGEHVYAVGGFDGANRLRSAEAYSPVANTWRTIPTMFNPRSNFGIEVVDDLLFVVGGFNGFTTTFNVECYDEKTDEWYDAHGMSIYRSALSCCVVPGLANVEEYAARRDNFPGLALRDEVKYSASTSTLPVRASSFS | failed
MNKRVVKVEYIFMAFALFFGVLFAVINAPFQDPDEPIHFYRAYQISTGQMFEQKNNSGIGGYLPQNLIKTSENLSEDIKAKSNKKQDINKIKYYLNLPLNKNKVAFNDFRSATIYSDIVYIPQSIGINLAKIFRASALYMMYFGRIANLICWTIIVFFSVKLIPFKKNLMAFLALTPMNLYQAASLSADAMTNSMAFLSIALVLRYAFGEEEAKLTKRQIVTMIIAFTLLAFSKRIYFVMCILFFIIPIKKFNSKKDYIGTFVIMLGACLMSLVTVSVISKILAIKVSAGSYTPGQMEFVLSHPITYIHILLRTFHFKMSFYAISFIGVFGWLDTRLPLNLYLFYGVALVLIALFEHTLIEKNKDRIIMFIVFIINVGLIMSALYVSWTPKAANIIEGIQGRYFIPIIPLLGCFIGVKANKSRNVYSKVVLAISTFTILTYSVLQLLLRFYGIRIL | failed
MKYNKDGQTFLLVLDKGEDIVEVLTQFAMEQEMKFGSVSGIGACDNVTLIFYNLDTQKYESREVNEALELTSLLGNISHIDDKPFAHLHGTFGTRDFQTLSGHLTKAVVSATAEIVIQMTNLDVNRTHDEETGLNLLRP | failed
SKDHTEFMVHLNNRIILRRWSIFKEFLHSEELKNTPASVEAELAVTAILEKLNQQIPPRPFQTHSSTTSAKQSTATIHNPQRTYCVGDQLNVLLVAKDYFGNRKEYGGDFLRARIFSPAMKAGTSGKVTDFNNGTYLVSFTLFWEGPVSLSILLMHPSEGVSALWRARNRGYGKIIFTGQFLNGTSPVLTECGLTLNTSAELCQYLDARDHEAFYCLKLPGVPCEALTHMTSKNSNISYLSLEEKLLFRRFNIGVEVVKNLSIVVSLCNNKTNKKKKKCQIGMETPSPGGYTLKGRWITAHCEQNEFRAIKDINNCLTRKLIYLMGDSTLRQWIYYLPKVVKTLKYFDRHGAGPFKTHILLDTERHIFVQWKKHSHPFVTNKLFSMKDDNYIPREIDQVAGDSGTAIVISFGQHFRPFPINVFIRRAINVKNAIERLFLRSPETKVIIKTENIREINEHVEIFSDFHGSIQNLIIRDIFRDLNVGIIDAWDMTVAYRSEDVHPPESVIESQIGMFLNYIC | failed
